One block for each molecule: values may come before it.
Assays:
[1] = system: GST-fused ADRB1 C-tail; assay: GST-pull down, ADRB1 C-tail; assay type: binding
Description: (§1) cDNAs encoding the cytoplasmic C-tail of 14 GPCRs and 2 one-transmembrane receptors were cloned into the pGEX-2T prokaryotic expression vector downstream the GST sequence. The following pGEX constructs were engineered: pGEX-DOR encoding residues 314–372 of the δ-opioid receptor (referring to Swiss-Prot accession number U10504), pGEX-MOR encoding residues 334–400 of the µ-opioid receptor (L29301), pGEX-KOR encoding residues 326–380 of the κ–opioid receptor (U17298), pGEX-ORL1 encoding residues 315–370 of the opioid receptor-like 1 (X77130), pGEX-M1 encoding residues 414–460 of the muscarinic M1 acetylcholine receptor (X52068), pGEX-M2 encoding residues 436–466 of the muscarinic M2 acetylcholine receptor (M16404), pGEX- ADRB1 encoding residues 373–477 of the β1 adrenergic receptor (J03019), pGEX-ADRB2 encoding residues 322–413 of the β2 adrenergic receptor (P07550), pGEX-CALCR encoding residues 407–490 of the calcitonin receptor (L00587), pGEX-CNR2 encoding residues 295–360 of the cannabinoid type 2 receptor (P34972), pGEX-5HT7 encoding residues 380–445 of the 5-hydroxytryptamine 7 receptor (L21195), pGEX-H2 encoding residues 284–349 of the histamine 2 receptor (S57565), pGEX-TXA2 encoding residues 304–343 of the α isoform of the thromboxane A2 receptor (D38081), pGEX-FZ4 encoding residues 493–537 of the frizzled 4 receptor (AB032417), pGEX-TGFβ encoding residues 805–849 of the type III transforming growth factor b receptor (L07594), pGEX-IGF1 encoding residues 1268–1367 of the insulin growth factor I receptor (X04434). Free GST was produced by using the pGEX-4T3 expression vector without insert. The same plasmid was used to clone the cDNA encoding a central domain of GASP-1, corresponding to amino acids 380 to 1073, downstream the GST sequence. All these plasmids were transformed into the Escherichia coli BL21 strain and expression was induced using 1mM of isopropylthiogalactoside for 2 h at 37°C. Bacteria were then pelleted, resuspended in PBS supplemented with cOmplete protease inhibitors (Roche), lysed at 1.5 kbar using a basic Z cell disrupter (constant system) and finally the lysates were cleared by centrifugation (10,000g, 15 min, 4°C).
(§2) cDNAs encoding GASP-1 and GASP-2 were cloned into the pcDNA3 eukaryotic expression vectors. cDNAs encoding GASP-3, -6, -7, and -9 were subcloned into pcDNA3.1 vectors. All the clones were controlled by DNA sequencing. The in vitro production was performed by using the TNT Quick-coupled Transcription/Translation T7 kit (Promega) in presence of [^35S]-Methionine according to the instructions from the manufacturer.
(§3) GST-fusion proteins were immobilized on glutathione-coupled Sepharose beads (GE Healthcare) for 1 h at 4°C and incubated with [^35S]-labelled in vitro translated GASP proteins or their truncated or mutated forms in ice-cold binding buffer containing: 20 mM Tris-HCl pH 7.4, 150 mM NaCl, 1 mM EDTA, 1 mM DTT, 10% glycerol and 1% Triton X-100. The mixture was incubated for 1 h at 4°C with gentle rocking. The beads were washed five times with the same ice-cold buffer, resuspended in 30 µl SDS-PAGE sample buffer, incubated 10 min at 65°C, and pelleted for 60 s at 3000 g. The supernatants were then analyzed by SDS-PAGE, the gels were stained with Coomassie blue to visualize GST-fusion proteins, dried and analyzed using a Phosphor-imager (Personal Molecular Imager FX, Biorad) to visualize [^35S]-labelled GASPs. Quantification was performed with the Quantity One software (Biorad). GST-pull down quantification data were analyzed using GraphPad Prism 4.03 (GraphPad Software). Quantifications presented are means of at least three independent experiments.

[2] = system: GST-fused DOR C-tail; settings: previous study; ref [6]; cited from earlier work
Description: We therefore hypothesized that this conserved carboxyl-terminal domain could be critical for the interaction of GASPs with GPCRs.

[3] = system: GST-fused H2 (histamine H2 receptor) C-tail; assay: GST-pull down, H2 C-tail; assay type: binding; settings: percent of [35S]-GASP input; pH 7.4, 1 h at 4°C; three independent experiments
Experimental: (§4) cDNAs encoding the cytoplasmic C-tail of 14 GPCRs and 2 one-transmembrane receptors were cloned into the pGEX-2T prokaryotic expression vector downstream the GST sequence. […]
as §3, with “The mixture was incubated for 1 h at 4°C with gentle rocking. The beads were washed five times with the same ice-cold buffer, resuspended in 30 µl SDS-PAGE sample buffer, incubated 10 min at 65°C, and pelleted for 60 s at 3000 g.” left out

[4] = system: GST-fused IGF1 (insulin growth factor I receptor) C-tail; assay: GST-pull down, IGF1 C-tail; assay type: binding; settings: for interaction with IGF1 C-tail: non-GPCR control
Description: as §1, §2, §3

[5] = system: GST-fused M1 C-tail; assay: GST-pull down, M1 C-tail; assay type: binding; settings: percent of [35S]-GASP input; pH 7.4, 1 h at 4°C; three independent experiments
Description: as §1, §2, §3

[6] = system: GST-fused CALCR C-tail; assay: GST-pull down, CALCR C-tail; assay type: binding; settings: percent of [35S]-GASP input; pH 7.4, 1 h at 4°C; three independent experiments
Experimental: as §4
as §3, with “The mixture was incubated for 1 h at 4°C with gentle rocking. The beads were washed five times with the same ice-cold buffer, resuspended in 30 µl SDS-PAGE sample buffer, incubated 10 min at 65°C, and pelleted for 60 s at 3000 g.” left out

[7] = system: GST-fused DOR C-tail; assay: GST-pull down, DOR C-tail; assay type: binding
Description: as §1, §2, §3

[8] = system: GST-fused TGFβ (type III transforming growth factor β receptor) C-tail; assay: GST-pull down, TGFβ C-tail; assay type: binding; settings: for interaction with TGFβ C-tail: non-GPCR control
Description: as §1, §2, §3

[9] = system: GST-fused TXA2 C-tail; assay: GST-pull down, TXA2 C-tail; assay type: binding; settings: percent of [35S]-GASP input; pH 7.4, 1 h at 4°C; three independent experiments
Experimental: as §4
as §3, with “The mixture was incubated for 1 h at 4°C with gentle rocking. The beads were washed five times with the same ice-cold buffer, resuspended in 30 µl SDS-PAGE sample buffer, incubated 10 min at 65°C, and pelleted for 60 s at 3000 g.” left out

[10] = system: GST-fused GPCR C-tails; assay: GST-pull down, GPCR C-tails; assay type: binding; settings: for interaction with GPCR C-tails: twelve GPCR C-tails
Description: as §1, §2
as §3, with “experiments. […]” for “experiments.”

[11] = system: GST-fused FZ4 C-tail; assay: GST-pull down, FZ4 C-tail; assay type: binding; settings: strong = >10% of GASP input
Experimental: as §4
as §3, with “The mixture was incubated for 1 h at 4°C with gentle rocking. The beads were washed five times with the same ice-cold buffer, resuspended in 30 µl SDS-PAGE sample buffer, incubated 10 min at 65°C, and pelleted for 60 s at 3000 g.” left out

[12] = system: GST-fused CNR2 C-tail; assay: GST-pull down, CNR2 C-tail; assay type: binding; settings: central domain compared to full-length GASP-1
Experimental: as §4
as §3, with “The mixture was incubated for 1 h at 4°C with gentle rocking. The beads were washed five times with the same ice-cold buffer, resuspended in 30 µl SDS-PAGE sample buffer, incubated 10 min at 65°C, and pelleted for 60 s at 3000 g.” left out

[13] = system: GST-fused ADRB2 C-tail; assay: GST-pull down, ADRB2 C-tail; assay type: binding; settings: central domain compared to full-length GASP-1
Experimental: as §4
as §3, with “The mixture was incubated for 1 h at 4°C with gentle rocking. The beads were washed five times with the same ice-cold buffer, resuspended in 30 µl SDS-PAGE sample buffer, incubated 10 min at 65°C, and pelleted for 60 s at 3000 g.” left out

[14] = percent of [35S]-GASP input, controls
[15] = percent of [35S]-GASP input, pH 7.4, 1 h at 4°C, three independent experiments

B1: amino acids 924 to 1395: carboxyl-terminal fragment of GASP-1, contains 2 GASP motifs (protein)
chain: CCVSKPEDDEEMIVESWFWSRDKAIKETGTVATCESKPENEEGAIVGSWFEAEDEVDNRTDNGSNCGSRTLADEDEAIVGSWFWAGDEAHFESNPSPVFRAICRSTCSVEQEPDPSRRPQSWEEVTVQFKPGPWGRVGFPSISPFRFPKEAASLFCEMFGGKPRNMVLSPEGEDQESLLQPDQPSPEFPFQYDPSYRSVQEIREHLRAKESTEPESSSCNCIQCELKIGSEEFEELLLLMEKIRDPFIHEISKIAMGMRSASQFTRDFIRDSGVVSLIETLLNYPSSRVRTSFLENMIRMAPPYPNLNIIQTYICKVCEETLAYSVDSPEQLSGIRMIRHLTTTTDYHTLVANYMSGFLSLLATGNAKTRFHVLKMLLNLSENLFMTKELLSAEAVSEFIGLFNREETNDNIQIVLAIFENIGNNIKKETVFSDDDFNIEPLISAFHKVEKFAKELQGKTDNQNDPEGDQEN
modifications: [35S]-methionine labelled
GASP-1 fragment input retained by ADRB1 C-tail ([1]; percent of input, data not shown): 5% | interaction with the DOR C-tail [2]: strong interaction

GASP input retained by H2 C-tail [3]: around 2% | interaction with IGF1 C-tail [4]: No interaction was detected | GASP input retained by control IGF1 C-tail [4, 14]: less than 1% | interaction with TGFβ C-tail [8]: No interaction was detected | GASP input retained by control TGFβ C-tail [8, 14]: less than 1%
B2: GASP-9: member of the second GASP subfamily, without GASP motif (protein)
chain: MSRVRDAGCVAAGIVIGAGAWYCVYKYTRGRDQTKKRMAKPKNRAVAGTGARARAGLRAGFTIDLGSGFSPPTPVRAEAEDRAQDEASALDTVGAEAVAPAASSAEAQSGAGSQAQEADGAGVGPKAESVVGAAMASAIAPPPGVTEALGAAEAPAMAGAPKVAEAPREAETSRAAVPPGTVVPTEAAAPTEVTEGPGVAAPTKVAEAPGVASPTEAAEAPVPATPTGAAAPTGAAESPGTSGSPRTAVVPGTSAAKKATPGAHTGAIPKATSATGAVPKGGGKGVTRSRNGGKGKGKKSKVEVDELGMGFRPGDGAAAAAAASANGGQAFLAEVPDSEEGESGWTDTESDSDSEPETQRRGRGRRPVAMQKRPFPYEIDEILGVRDLRKVLALLQKSDDPFIQQVALLTLSNNANYSCNQETIRKLGGLPIIANMINKTDPHIKEKALMAMNNLSENYENQGRLQVYMNKVMDDIMASNLNSAVQVVGLKFLTNMTITNDYQHLLVNSIANFFRLLSQGGGKIKVEILKILSNFAENPDMLKKLLSTQVPASFSSLYNSYVESEILINALTLFEIIYDNLRAEVFNYREFNKGSLFYLCTTSGVCVKKIRALANHHDLLVKVKVIKLVNKF
modifications: [35S]-methionine labelled
GASP input retained by M1 C-tail [5]: around 2% | GASP input retained by ADRB1 C-tail [1, 15]: around 2% | GASP input retained by CALCR C-tail [6]: around 2% | GASP input retained by DOR C-tail [7, 15]: around 2% | GASP input retained by TXA2 C-tail [9]: around 2% | interaction with GPCR C-tails [10]: very weak interactions

interaction with IGF1 C-tail [4]: no interaction was detected | interaction with TGFβ C-tail [8]: no interaction was detected
B3: GASP-1: GPCR-associated sorting protein 1 (protein)
chain: MTGAEIESGAQVKPEKKPGEEVVGGAEIENDVPLVVRPKVRTQAQIMPGARPKNKSKVMPGASTKVETSAVGGARPKSKAKAIPVSRFKEEAQMWAQPRFGAERLSKTERNSQTNIIASPLVSTDSVLVAKTKYLSEDRELVNTDTESFPRRKAHYQAGFQPSFRSKEETNMGSWCCPRPTSKQEASPNSDFKWVDKSVSSLFWSGDEVTAKFHPGNRVKDSNRSMHMANQEANTMSRSQTNQELYIASSSGSEDESVKTPWFWARDKTNTWSGPREDPNSRSRFRSKKEVYVESSSGSEHEDHLESWFGAGKEAKFRSKMRAGKEANNRARHRAKREACIDFMPGSIDVIKKESCFWPEENANTFSRPMIKKEARARAMTKEEAKTKARARAKQEARSEEEALIGTWFWATDESSMADEASIESSLQVEDESIIGSWFWTEEEASMGTGASSKSRPRTDGERIGDSLFGAREKTSMKTGAEATSESILAADDEQVIIGSWFWAGEEVNQEAEEETIFGSWFWVIDAASVESGVGVSCESRTRSEEEEVIGPWFWSGEQVDIEAGIGEEARPGAEEETIFGSWFWAENQTYMDCRAETSCDTMQGAEEEEPIIGSWFWTRVEACVEGDVNSKSSLEDKEEAMIPCFGAKEEVSMKHGTGVRCRFMAGAEETNNKSCFWAEKEPCMYPAGGGSWKSRPEEEEDIVNSWFWSRKYTKPEAIIGSWLWATEESNIDGTGEKAKLLTEEETIINSWFWKEDEAISEATDREESRPEAEEGDIIGSWFWAGEEDRLEPAAETREEDRLAAEKEGIVGSWFGAREETIRREAGSCSKSSPKAEEEEVIIGSWFWEEEASPEAVAGVGFESKPGTEEEEITVGSWFWPEEEASIQAGSQAVEEMESETEEETIFGSWFWDGKEVSEEAGPCCVSKPEDDEEMIVESWFWSRDKAIKETGTVATCESKPENEEGAIVGSWFEAEDEVDNRTDNGSNCGSRTLADEDEAIVGSWFWAGDEAHFESNPSPVFRAICRSTCSVEQEPDPSRRPQSWEEVTVQFKPGPWGRVGFPSISPFRFPKEAASLFCEMFGGKPRNMVLSPEGEDQESLLQPDQPSPEFPFQYDPSYRSVQEIREHLRAKESTEPESSSCNCIQCELKIGSEEFEELLLLMEKIRDPFIHEISKIAMGMRSASQFTRDFIRDSGVVSLIETLLNYPSSRVRTSFLENMIRMAPPYPNLNIIQTYICKVCEETLAYSVDSPEQLSGIRMIRHLTTTTDYHTLVANYMSGFLSLLATGNAKTRFHVLKMLLNLSENLFMTKELLSAEAVSEFIGLFNREETNDNIQIVLAIFENIGNNIKKETVFSDDDFNIEPLISAFHKVEKFAKELQGKTDNQNDPEGDQEN
modifications: [35S]-methionine labelled
interaction with FZ4 C-tail [11]: strong interaction | interaction with CNR2 C-tail [12]: interact with GASP-1 | interaction with ADRB2 C-tail [13]: interact with GASP-1 | interaction with DOR C-tail ([7]; among the opioid receptors): significant interactions | GASP input retained by GPCR C-tails ([10]; percent of GASP input): > 10% | interaction with GPCR C-tails [10]: medium to strong interactions

— publication PMC3575409, “Identification of a Novel Protein-Protein Interaction Motif Mediating Interaction of GPCR-Associated Sorting Proteins with G Protein-Coupled Receptors” (PLoS ONE, 2013)
